B1: TGF-b3: human recombinant transforming growth factor beta 3 (R&D) (protein, UniProt P10600 301-412, looked up)
Transforming growth factor …: ALDTNYCFRNLEENCCVRPLYIDFRQDLGWKWVHEPKGYYANFCSGPCPYLRSADTTHSTVLGLYNTLNPEASASPCCVPQDLEPLTILYYVGRTPKVEQLSNMVVKSCKCS
B2: CNTF: ciliary neurotrophic factor (protein, UniProt P26441 1-200, looked up)
Ciliary neurotrophic factor: MAFTEHSPLTPHRRDLCSRSIWLARKIRSDLTALTESYVKHQGLNKNINLDSADGMPVASTDQWSELTEAERLQENLQAYRTFHVLLARLLEDQQVHFTPTEGDFHQAIHTLLLQVAAFAYQIEELMILLEYKIPRNEADGMPINVGDGGLFEKKLWGLKVLQELSQWTVRSIHDLRFISSHQTGIPARGSHYIANNKKM

Tests used:
human NSCs = test: Retinal differentiation of human NSCs in vitro (opsin immunocytochemistry); type: cell-based; conditions: for differentiation of NSCs into opsin-positive cells: factor for 3 days before, or for 5 days during, spontaneous differentiation in serum-free condition, 50 ng/ml; for differentiation of NSCs into retinal cells (opsin staining): FIG. 7(II), serum-free differentiation, 20 ng/ml IGF-1, 100 ng/ml TGF-b3, 10 ng/ml CNTF
Description: Two kinds of differentiation studies were performed: treatment of human NSCs with factors (i) before and (ii) during spontaneous differentiation under a basal media condition. In the first example, NSCs were differentiated under a serum-free differentiation condition in the presence of TGF-b3 (R&D, 50 ng/ml (1 ng/ml to 1 ug/ml)) and VEGF (R&D, 50 ng/ml (1 ng/ml to 1 ug/ml)) for 5 days in Lab-Teck II chamber slides (Nalge Nunc). The second example elucidated whether pretreatment of NSCs is sufficient to produce retinal lineages in these cells. The NSCs were treated with these factors for 3 days, and then differentiated for 5 days under the serum-free differentiation condition in the absence of these factors in the Lab-Teck II chamber slides. As a control, human NSCs were differentiated for 5 days in a no-factor treatment under a serum-free differentiation condition. After differentiation, cells were examined by double-immunofluorescent-cytochemistry (Kim et al., 2002, Proc. Natl. Acad. Sci. U S A 99: 4020-5) with antibodies in a combination of goat anti-GFAP (1:100, Research Diagnostics) and mouse anti-B-tubulin (1:700, Sigma) or mouse anti-opsin (1:200, Chemicon). […] No opsin-positive cells were detected in the spontaneous differentiation without TGF-b3 (FIG. 7b), the treated cells were positive for bIII-tubulin and GFAP (FIG. 7a).

MeSCs = test: Retinal cell differentiation of MeSCs with growth factor treatment; type: cell-based; conditions: without BrdU pre-treatment
rat retina = test: Transplantation of pretreated NSCs into the rat vitreous cavity (opsin immunocytochemistry, human opsin ISHH); type: in vivo; conditions: FIG. 8(II); 8 days after transplantation to rat eye; NSCs exposed for four days to 20 ng/ml IGF-1, 100 ng/ml TGF-b3 or 10 ng/ml CNTF

| Molecule | differentiation of NSCs into opsin-positive cells (human NSCs) | retinal cell-differentiation of MeSCs (MeSCs) | differentiation of transplanted NSCs to opsin-expressing cells in vivo (rat retina) | differentiation of NSCs into retinal cells (opsin staining) (human NSCs) |
| --- | --- | --- | --- | --- |
| VEGF | no opsin-positive cells were detectable | not sufficient to confer retinal cell-differentiation | – | – |
| IGF-1: insulin-like growth factor-1 | – | – | differentiated to opsin-expressing cells in vivo | can differentiate into retinal cells |
| B1 | differentiated into opsin-positive cells | not sufficient to confer retinal cell-differentiation | differentiated to opsin-expressing cells in vivo | can differentiate into retinal cells |
| B2 | – | – | differentiated to opsin-expressing cells in vivo | can differentiate into retinal cells |

Reference: US7618621B2, “Mammalian multipotent neural stem cells and compositions, methods of preparation and methods of administration thereof” (The Board of Trustees of the University of Illinois, priority 2002, dated 2009)
